Data as given in PMC5368172.

How the values were obtained:
[1] = biological target: SCM on the surface of S. canis strain G361 (Streptococcus canis (endogenous in strain G361)); experiment: radioligand binding; iodinated IgG or iodinated plasminogen incubated with whole S. canis bacteria, gamma-counting, percent bound; inhibition with 1.0 μM non-labeled IgG or plasminogen
[2] = biological target: HRP-conjugated human IgG (human); experiment: ELISA; competitive: wells coated with 5 μg full length SCM; HRP-conjugated human IgG (1:200) pre-incubated 15 min with 10 μg SCM, FOG or KO173225, then added for 2 h

human plasminogen (natural protein)
percent bound [1]: 37.1%
percent bound with excess non-radiolabeled plasminogen [1]: 23.3%

recombinant SCM, the M protein of Streptococcus canis (natural protein)
IgG binding to immobilized SCM left after pre-incubation of IgG with 10 μg SCM, percent [2]: 20%
